Changes are numbered by the printed parent chain.
Columns and labels:
[1] = target: T1, Human CD3ε&CD3δ heterodimeric Fc Chimera (ACRO Biosystems CDD-H52W0) (human, UniProt P07766 22-126, Disulfide-linked heterodimer through the Fc parts that are left off.); experiment: BLI full kinetics; rhCD3ε/δ-Fc captured on AHC sensor; analyte 15.6-125 nM; monovalent (affinity)
T1 construct: Disulfide-linked heterodimer, bought; also called rhCD3ε/δ-Fc; rhCD3ε/CD3δ-Fc

[2] = target: T2, rhBCMA-Fc Chimera (R&D Systems 193-BC-050) (human, Disulfide-linked homodimer (the 25th table, row 5); one copy of the chain is given.); experiment: BLI full kinetics; rhBCMA-Fc captured on AHC sensor; analyte 1.56-50 nM; bivalent (avidity)
T2 construct: Disulfide-linked dimer, bought; also called immobilized BCMA
T2 sequence (chain, as listed by the source mutant limits assumed): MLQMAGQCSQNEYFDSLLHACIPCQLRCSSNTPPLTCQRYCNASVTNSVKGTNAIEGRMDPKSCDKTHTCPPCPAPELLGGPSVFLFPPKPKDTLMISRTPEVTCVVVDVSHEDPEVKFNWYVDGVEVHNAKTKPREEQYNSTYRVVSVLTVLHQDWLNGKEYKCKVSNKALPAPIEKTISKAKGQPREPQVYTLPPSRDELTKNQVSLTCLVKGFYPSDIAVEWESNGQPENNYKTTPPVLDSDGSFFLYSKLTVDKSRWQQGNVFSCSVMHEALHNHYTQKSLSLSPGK

[3] = target: T1, Human CD3ε&CD3δ heterodimeric Fc …; experiment: BLI (Octet) scouting; rhCD3ε/δ-Fc captured on AHC sensor; analyte 2000 nM; 1:1 local fit
[4] = target: T2, rhBCMA-Fc Chimera (R&D Systems …); experiment: BLI (Octet) scouting; rhBCMA-Fc captured on AHC sensor; analyte 100 nM; 1:1 local fit
[5] = target: T3, CD3 on (CD3+) T cells (human, UniProt P07766 23-207; P09693 23-182; P04234 22-171; P20963 22-164); experiment: flow cytometry; 10 µg/mL scFv on 50,000 CD3+ T cells; anti-FLAG FITC detection
T3 construct: whole, on cells; also called CD3 protein multi-subunit complex
T3 sequence (P07766 23-207, form in doubt, chain 1 of 4): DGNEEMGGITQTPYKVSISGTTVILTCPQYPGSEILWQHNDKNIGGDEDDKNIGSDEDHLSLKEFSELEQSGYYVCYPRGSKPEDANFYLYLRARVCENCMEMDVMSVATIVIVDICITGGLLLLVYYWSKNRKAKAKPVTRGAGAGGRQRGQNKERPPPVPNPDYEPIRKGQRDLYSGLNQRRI
T3 sequence (P09693 23-182, form in doubt, chain 2 of 4): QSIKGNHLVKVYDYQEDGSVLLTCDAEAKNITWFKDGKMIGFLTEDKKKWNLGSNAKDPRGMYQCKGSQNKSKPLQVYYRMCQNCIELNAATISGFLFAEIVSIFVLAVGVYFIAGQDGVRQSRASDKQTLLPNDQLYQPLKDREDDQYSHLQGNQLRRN
T3 sequence (P04234 22-171, form in doubt, chain 3 of 4): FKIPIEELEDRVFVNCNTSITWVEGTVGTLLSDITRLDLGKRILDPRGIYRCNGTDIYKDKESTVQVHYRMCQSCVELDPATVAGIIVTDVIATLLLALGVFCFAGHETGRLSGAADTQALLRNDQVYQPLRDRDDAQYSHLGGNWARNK
T3 sequence (P20963 22-164, form in doubt, chain 4 of 4): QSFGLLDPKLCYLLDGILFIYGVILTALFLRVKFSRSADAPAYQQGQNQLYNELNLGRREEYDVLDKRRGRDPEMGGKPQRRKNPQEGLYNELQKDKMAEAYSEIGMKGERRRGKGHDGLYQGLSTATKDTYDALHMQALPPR

T1 sequence (P07766 22-126 limits assumed, stated change not applied, chain 1 of 2): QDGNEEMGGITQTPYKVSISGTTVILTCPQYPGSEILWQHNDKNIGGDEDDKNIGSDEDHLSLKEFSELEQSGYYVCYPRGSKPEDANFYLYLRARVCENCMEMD
T1 sequence (delta, as listed by the source mutant limits assumed, chain 2 of 2): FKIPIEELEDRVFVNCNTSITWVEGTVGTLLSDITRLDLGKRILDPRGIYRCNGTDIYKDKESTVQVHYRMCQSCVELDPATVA

B1: bispecific antibody of SEQ ID NO: 138 (with a C-terminal Myc-Flag tag of SEQ ID NO: 141) (bispecific antibody)
chain: DIVLTQSPASLAVSPGQRATISCRASESVSFLGINLIHWYQQKPGQPPKLLIYLASNLETGVPARFSGSGSGTDFTLTISSVEPEDTANYYCLQSRTLPRTFGQGTKVEIKGSTSGSGKPGSGEGSTKGQIQLVQSGPELKKPGGSVKISCKASGYTFTSYSINWVRQAPGKGLEWVGWINTETREPAYAQGFTGRFTFSADTSKSMAYLQINSLRAEDTAVYYCALDYLYSLDFWGQGTLVTVSSGGGGSQVQLVQSGAEVKKPGASVKVSCKASGYTFTRYTMHWVRQAPGQGLEWIGYINPSKGYTNYNQKFKGRVTMTADKSTSTAYMELSSLRSEDTAVYYCARYYDDHYSLDYWGQGTLVTVSSGGGGSGGGGSGGGGSGGGGSEIVMTQSPATLSLSPGERVTLSCRASSSVSYMNWYQQKSGTSPKRWIYDTSKVASGVPYRFSGSGSGTDFTLTISSLQAEDEATYYCQQWSSNPLTFGQGTKLEIKSSGGSGGSGGSGGSGGSGGSGGSGGSGGSGSDIVLTQSPASLAVSPGQRATISCRASESVSFLGINLIHWYQQKPGQPPKLLIYLASNLETGVPARFSGSGSGTDFTLTISSVEPEDTANYYCLQSRTLPRTFGQGTKVEIKGSTSGSGKPGSGEGSTKGQIQLVQSGPELKKPGGSVKISCKASGYTFTSYSINWVRQAPGKGLEWVGWINTETREPAYAQGFTGRFTFSADTSKSMAYLQINSLRAEDTAVYYCALDYLYSLDFWGQGTLVTVSSGGSLEQKLISEEDLAANDILDYKDDDDKV
notes: Single chain: anti-BCMA scFv, anti-CD3 scFv, anti-BCMA scFv; also called DC10xP15-MycDDK; DC10xP15
**Q.** With B1 as the binder, how does the Kd [1] read?
**A.** 3.02 nM

**Q.** And the koff [1]?
**A.** 0.00199 s⁻¹

**Q.** What about the kon [1] of the same binder?
**A.** 660000 M⁻¹ s⁻¹

**Q.** And the Kd [2]?
**A.** < 0.001 nM

**Q.** And the koff [2]?
**A.** < 1e-07 s⁻¹

**Q.** What about the kon [2] of the same binder?
**A.** 226000 M⁻¹ s⁻¹

**Q.** What about the Kd [3] of the same binder?
**A.** 9.76 nM

**Q.** What about the Kd [4] of the same binder?
**A.** 0.116 nM

B2: Vulcanodon-3 anti-CD3 scFv (SEQ ID NO: 4), FLAG and His-tagged version (scFv)
scFv: QVQLVQSGAEVKKLGASVKVSCKASGYTFTRYTMHWVKQAPGQGLEWIGYINPSRGYTNYNQKFQGRVTMTRDTSISTAYMELSRLRSDDTAVYYCARYYDDHYSLDYWGQGTLVTVSSGGGGSGGGGSGGGGSGGGGSDIQMTQSPSSLSASVGDRVTITCRASSSVSYMNWYQQKSGTSPKRWIYDTSKVASGVPYRFSGSGSGTDFTLTISSLQPEDFATYYCQQWSSNPLTFGAGTKLEIK
notes: also called Var 3; not shown: FLAG and His tags
**Q.** B2 was tested. Which “CD3 Binding (increase in MFI)” value [5] did it give?
**A.** 24 MFI

B3: Vulcanodon-C2 anti-CD3 scFv (SEQ ID NO: 8), FLAG and His-tagged version (scFv)
scFv: QVQLQQSGAELARPGASVKMSCKTSGYTFTRYTMHWVKQRPGQGLEWMGIINPSGGSTSYAQKFKDKATLTTDKSSSTAYMQLSSLTSEDSAVYYCARYYDDHYSLDYWGQGTTLTVSSGGGGSGGGGSGGGGSGGGGSQIVLTQSPAIMSASPGEKVTMTCRASSSVSYMNWYQQKSGQAPRLLIYGASTRATGIPYRFSGSGSGTSYSLTISSMEAEDAATYYCQQWSSNPLTFGAGTKLELK
notes: also called Var CDR2; not shown: FLAG and His tags
**Q.** How did the “CD3 Binding (increase in MFI)” value [5] turn out when B3 was run?
**A.** ~0 MFI

B4: Vulcanodon-1 anti-CD3 scFv (SEQ ID NO: 2), FLAG and His-tagged version (scFv)
scFv: QVQLVQSGAEVKKPGASVKVSCKASGYTFTRYTMHWVRQAPGQGLEWIGYINPSKGYTNYNQKFKGRVTMTADKSTSTAYMELSSLRSEDTAVYYCARYYDDHYSLDYWGQGTLVTVSSGGGGSGGGGSGGGGSGGGGSEIVMTQSPATLSLSPGERVTLSCRASSSVSYMNWYQQKSGTSPKRWIYDTSKVASGVPYRFSGSGSGTDFTLTISSLQAEDEATYYCQQWSSNPLTFGQGTKLEIK
notes: also called Var 1; not shown: FLAG and His tags
**Q.** B4 was tested. Which “CD3 Binding (increase in MFI)” value [5] did it give?
**A.** 20 MFI

B5: Vulcanodon-4 anti-CD3 scFv (SEQ ID NO: 5), FLAG and His-tagged version (scFv)
scFv: B4 scFv with R38K, A40R, E140Q, M143L, T149I, L150M, L152A, R157K, L160M, S161T
notes: also called Var 4; not shown: FLAG and His tags
**Q.** How did the “CD3 Binding (increase in MFI)” value [5] turn out when B5 was run?
**A.** 27 MFI

B6: Vulcanodon-2 anti-CD3 scFv (SEQ ID NO: 3), FLAG and His-tagged version (scFv)
scFv: B4 scFv with K55R, L114T, Q238A
notes: also called Var 2; not shown: FLAG and His tags
**Q.** Which “CD3 Binding (increase in MFI)” value [5] does the source give for B6 here?
**A.** 24 MFI

B7: Vulcanodon-C1 anti-CD3 scFv (SEQ ID NO: 7), FLAG and His-tagged version (scFv)
scFv: QVQLQQSGAELARPGASVKMSCKTSGYTFTGYYMHWVKQRPGQGLEWIGYINPSRGYTNYNQKFKDKATLTTDKSSSTAYMQLSSLTSEDSAVYYCARYYDDHYSLDYWGQGTTLTVSSGGGGSGGGGSGGGGSGGGGSQIVLTQSPAIMSASPGEKVTMTCRASQSISSYLNWYQQKSGTSPKRWIYDTSKVASGVPYRFSGSGSGTSYSLTISSMEAEDAATYYCQQWSSNPLTFGAGTKLELK
notes: also called Var CDR1; not shown: FLAG and His tags
**Q.** B7 was tested. Which “CD3 Binding (increase in MFI)” value [5] did it give?
**A.** ~0 MFI
